{
  "source": "paper PMC6679882",
  "origin": "cited, not measured here",
  "molecular_target": "IL-18BP (Homo sapiens) (UniProt O95998)",
  "sequence (O95998 31-194)": "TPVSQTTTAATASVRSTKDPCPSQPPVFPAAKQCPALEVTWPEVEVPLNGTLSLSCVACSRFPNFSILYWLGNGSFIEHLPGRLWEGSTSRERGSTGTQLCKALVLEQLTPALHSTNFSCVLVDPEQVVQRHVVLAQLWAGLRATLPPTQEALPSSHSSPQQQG",
  "data": [
    {"substance": "IL-18 (from UniProt Q14116)", "values": [
      {"measurement": "Kd", "result": 0.4, "unit": "nM"}
    ]}
  ]
}
